Source: US20190085054A1 (Amgen, published 2019)
Changes are numbered by the printed parent chain. Numbers in names are those of the source. One block for each binder: values may come before it.

Key:
Experiment in all cases: cell-based or functional assay
[1] = target: T1, catalytic domain of human MMP9 (human, UniProt P14780 107-444, limits assumed)
[2] = target: T2, human MMP2 (pro-MMP2 activated with APMA) (human, UniProt P08253 30-660)
T2 sequence (looked up): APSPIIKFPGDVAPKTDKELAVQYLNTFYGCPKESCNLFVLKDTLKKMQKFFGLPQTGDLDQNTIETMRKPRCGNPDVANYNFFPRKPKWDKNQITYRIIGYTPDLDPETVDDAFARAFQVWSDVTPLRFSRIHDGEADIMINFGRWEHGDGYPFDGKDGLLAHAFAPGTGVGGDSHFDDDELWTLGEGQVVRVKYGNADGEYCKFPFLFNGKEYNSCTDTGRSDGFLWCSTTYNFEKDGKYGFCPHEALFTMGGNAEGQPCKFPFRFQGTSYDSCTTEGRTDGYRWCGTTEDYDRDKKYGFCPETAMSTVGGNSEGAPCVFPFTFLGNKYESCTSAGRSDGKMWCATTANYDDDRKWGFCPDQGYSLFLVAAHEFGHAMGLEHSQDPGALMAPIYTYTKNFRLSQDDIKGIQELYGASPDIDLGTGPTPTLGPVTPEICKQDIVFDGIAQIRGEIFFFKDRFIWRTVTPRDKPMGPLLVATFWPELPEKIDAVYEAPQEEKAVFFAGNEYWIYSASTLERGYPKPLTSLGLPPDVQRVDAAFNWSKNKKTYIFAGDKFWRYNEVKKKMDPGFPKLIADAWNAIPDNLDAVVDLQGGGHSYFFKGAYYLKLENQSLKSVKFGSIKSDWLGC

[3] = target: active MMP13 (UniProt P45452 20-471, limits assumed)
[4] = target: T1, catalytic domain of human MMP9; remark: listed apart in the source
[5] = target: T2, human MMP2 (pro-MMP2 activated with …); remark: listed apart in the source

T1 sequence (P14780 107-444 limits assumed): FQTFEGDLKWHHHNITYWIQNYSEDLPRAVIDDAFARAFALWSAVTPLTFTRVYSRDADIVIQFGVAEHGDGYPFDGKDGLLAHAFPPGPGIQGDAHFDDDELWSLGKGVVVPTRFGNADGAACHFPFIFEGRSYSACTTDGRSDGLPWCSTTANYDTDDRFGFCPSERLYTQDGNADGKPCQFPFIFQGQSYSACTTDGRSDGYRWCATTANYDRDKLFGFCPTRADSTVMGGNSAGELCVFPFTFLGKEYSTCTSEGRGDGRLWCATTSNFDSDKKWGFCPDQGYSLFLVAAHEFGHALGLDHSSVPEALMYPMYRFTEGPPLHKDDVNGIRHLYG

B3: TIMP-3 mutein K45N, V47T, F57N, K94N, E96T, D110N, K112T, G173T, R186Q, K188Q (other)
chain: CTCSPSHPQDAFCNSDIVIRANVTGKKLVKEGPNGTLVYTIKQMKMYRGFTKMPHVQYIHTEASESLCGLNLTVNKYQYLLTGRVYNGTMYTGLCNFVERWDQLTLSQRKGLNYRYHLGCNCKIKSCYYLPCFVTSKNECLWTDMLSNFTYPGYQSKHYACIQQQGGYCSWYRGWAPPDKSIINATDP
MMP9 Inhibition Shift [4]: 12 fold
MMP2 Inhibition Shift [5]: 3 fold

B4: TIMP-3 mutein K45E, K49E, F57N, K94N, E96T, D110N, K112T, G173T, R186N, K188T (other)
chain: B3 chain with N22E, T24V, K26E, Q163N, Q165T
MMP9 Inhibition Shift [4]: 5 fold
MMP2 Inhibition Shift [5]: 1 fold

B9: TIMP-3 mutein K45E, F57N, Q126N, R138T, G173T (other)
chain: B3 chain with N22E, T24V, N71K, T73E, N87D, T89K, Q103N, R115T, Q163R, Q165K
MMP9 Inhibition Shift [4]: 8 fold
MMP2 Inhibition Shift [5]: 4 fold

B11: TIMP-3 mutein K45N, V47T, F57N, K94N, E96T, R138T, G173T (other)
chain: B3 chain with N87D, T89K, R115T, Q163R, Q165K
MMP9 Inhibition Shift [4]: 15 fold
MMP2 Inhibition Shift [5]: 5 fold

B12: TIMP-3 mutein K45E, F57N, K94N, E96T, D110N, K112T, R138T (other)
chain: B3 chain with N22E, T24V, R115T, T150G, Q163R, Q165K
MMP9 Inhibition Shift [4]: 128 fold
MMP2 Inhibition Shift [5]: 1 fold

B13: TIMP-3 mutein K45N, V47T, F57N, K94N, E96T, D110N, K112T, R186N, K188T (other)
chain: B3 chain with T150G, Q163N, Q165T
MMP9 Inhibition Shift [4]: 8 fold
MMP2 Inhibition Shift [5]: 3 fold

B14: TIMP-3 mutein K45E, K50N, V52T, K94N, E96T, D110N, K112T, R138T, G173T (other)
chain: B3 chain with N22E, T24V, K27N, V29T, N34F, R115T, Q163R, Q165K
MMP9 Inhibition Shift [4]: 1 fold
MMP2 Inhibition Shift [5]: 2 fold

B16: TIMP-3 mutein K45N, V47T, F57N, K75N, P77T, K94N, E96T, R138T, G173T (other)
chain: B3 chain with K52N, P54T, N87D, T89K, R115T, Q163R, Q165K
MMP9 Inhibition Shift [4]: 25 fold
MMP2 Inhibition Shift [5]: 7 fold

Second part, the binder after the results:

MMP9 IC50 [1]: 1 nM
MMP2 IC50 [2]: 0.6 nM
MMP13 IC50 [3]: 0.9 nM
B1: wild-type TIMP-3 (native human tissue inhibitor of metalloproteinase 3) (other)
chain: B3 chain with N22K, T24V, N34F, N71K, T73E, N87D, T89K, T150G, Q163R, Q165K

MMP9 Inhibition Shift [4]: 70 fold
MMP2 Inhibition Shift [5]: 1 fold
B2: TIMP-3 mutein K50N, V52T, F57N, K94N, E96T, D110N, K112T, R138T (other)
chain: B3 chain with N22K, T24V, K27N, V29T, R115T, T150G, Q163R, Q165K

MMP9 Inhibition Shift [4]: 16 fold
MMP2 Inhibition Shift [5]: 8 fold
B5: TIMP-3 mutein K45S, F57N, T63N, K65T, K94N, E96T, R138T, G173T (other)
chain: B3 chain with N22S, T24V, T40N, K42T, N87D, T89K, R115T, Q163R, Q165K

MMP9 Inhibition Shift [4]: 24 fold
MMP2 Inhibition Shift [5]: 6 fold
B6: TIMP-3 mutein K45S, F57N, K94N, E96T, D110N, K112T, R138T, G173T (other)
chain: B3 chain with N22S, T24V, R115T, Q163R, Q165K

MMP9 Inhibition Shift [4]: 1 fold
MMP2 Inhibition Shift [5]: 2 fold
B7: TIMP-3 mutein K50N, V52T, K94N, E96T, R138T, G173T (other)
chain: B3 chain with N22K, T24V, K27N, V29T, N34F, N87D, T89K, R115T, Q163R, Q165K

MMP9 Inhibition Shift [4]: 91 fold
MMP2 Inhibition Shift [5]: 2 fold
B8: TIMP-3 mutein K50N, V52T, F57N, K94N, E96T, R138T, G173T (other)
chain: B3 chain with N22K, T24V, K27N, V29T, N87D, T89K, R115T, Q163R, Q165K

MMP9 Inhibition Shift [4]: 16 fold
MMP2 Inhibition Shift [5]: 2 fold
B10: TIMP-3 mutein K45S, F57N, T63N, K65T, K94N, E96T, G173T (other)
chain: B3 chain with N22S, T24V, T40N, K42T, N87D, T89K, Q163R, Q165K

MMP9 Inhibition Shift [4]: 8 fold
MMP2 Inhibition Shift [5]: 6 fold
B15: TIMP-3 mutein K45N, V47T, F57N, V97N, K99T, R138T, G173T (other)
chain: B3 chain with N71K, T73E, V74N, K76T, N87D, T89K, R115T, Q163R, Q165K

MMP9 Inhibition Shift [4]: 18 fold
MMP2 Inhibition Shift [5]: 5 fold
B17: TIMP-3 mutein K45S, F57N, H78N, Q80T, K94N, E96T, R138T, G173T (other)
chain: B3 chain with N22S, T24V, H55N, Q57T, N87D, T89K, R115T, Q163R, Q165K
